± gives the standard deviation of the averaged measurements.
Assay: total protein half-life in vivo (active degradation + dilution); higher = more stable protein
[1] = wild type E. coli NCM3722, growth: C-lim chemostat, doubling time 3 h
[2] = wild type E. coli NCM3722, growth: C-lim chemostat, doubling time 12 h
[3] = wild type E. coli NCM3722, growth: N-lim chemostat, doubling time 6 h
[4] = wild type E. coli NCM3722, growth: N-lim chemostat, doubling time 12 h
[5] = E. coli NCM3722 delta-clpP delta-lon delta-hslV, growth: N-lim chemostat, doubling time 6 h
[6] = E. coli NCM3722 delta-clpP, growth: N-lim chemostat, doubling time 6 h
[7] = E. coli NCM3722 delta-hslV, growth: N-lim chemostat, doubling time 6 h
[8] = E. coli NCM3722 delta-lon, growth: N-lim chemostat, doubling time 6 h
[9] = E. coli NCM3722 delta-smpB, growth: N-lim chemostat, doubling time 6 h
[10] = wild type E. coli NCM3722, growth: C-lim chemostat, doubling time 6 h
[11] = wild type E. coli NCM3722, growth: P-lim chemostat, doubling time 6 h
[12] = wild type E. coli NCM3722, growth: P-lim chemostat, doubling time 12 h

| Sequence | total protein half-life in vivo [1] | total protein half-life in vivo [2] | total protein half-life in vivo [3] | total protein half-life in vivo [4] | total protein half-life in vivo [5] | total protein half-life in vivo [6] | total protein half-life in vivo [7] | total protein half-life in vivo [8] | total protein half-life in vivo [9] | total protein half-life in vivo [10] | total protein half-life in vivo [11] | total protein half-life in vivo [12] |
| --- | --- | --- | --- | --- | --- | --- | --- | --- | --- | --- | --- | --- |
| MENNRNFPARQFHSLTFFAGLCIGITPVAQALAAEGQTNADDTLVVEASTPSLYAPQQSADPKFSRPVADTTRTMTVISEQVIKDQGATNLTDALKNVPGVGAFFAGENGNSTTGDAIYMRGADTSNSIYIDGIRDIGSVSRDTFNTEQVEVIKGPSGTDYGRSAPTGSINMISKQPRNDSGIDASASIGSAWFRRGTLDVNQVIGDTTAVRLNVMGEKTHDAGRDKVKNERYGVAPSVAFGLGTANRLYLNYLHVTQHNTPDGGIPTIGLPGYSAPSAGTAALNHSGKVDTHNFYGTDSDYDDSTTDTATMRFEHDINDNTTIRNTTRWSRVKQDYLMTAIMGGASNITQPTSDVNSWTWSRTANTKDVSNKILTNQTNLTSTFYTGSIGHDVSTGVEFTRETQTNYGVNPVTLPAVNIYHPDSSIHPGGLTRNGANANGQTDTFAIYAFDTLQITRDFELNGGIRLDNYHTEYDSATACGGSGRGAITCPTGVAKGSPVTTVDTAKSGNLMNWKAGALYHLTENGNVYINYAVSQQPPGGNNFALAQSGSGNSANRTDFKPQKANTSEIGTKWQVLDKRLLLTAALFRTDIENEVEQNDDGTYSQYGKKRVEGYEISVAGNITPAWQVIGGYTQQKATIKNGKDVAQDGSSSLPYTPEHAFTLWSQYQATDDISVGAGARYIGSMHKGSDGAVGTPAFTEGYWVADAKLGYRVNRNLDFQLNVYNLFDTDYVASINKSGYRYHPGEPRTFLLTANMHF | 3.14 ± 0.17 h | > 16 h | > 8 h | > 16 h |  |  |  |  |  |  |  |  |
| MEPKTKKQRSLYIPYAGPVLLEFPLLNKGSAFSMEERRNFNLLGLLPEVVETIEEQAERAWIQYQGFKTEIDKHIYLRNIQDTNETLFYRLVNNHLDEMMPVIYTPTVGAACERFSEIYRRSRGVFISYQNRHNMDDILQNVPNHNIKVIVVTDGERILGLGDQGIGGMGIPIGKLSLYTACGGISPAYTLPVVLDVGTNNQQLLNDPLYMGWRNPRITDDEYYEFVDEFIQAVKQRWPDVLLQFEDFAQKNAMPLLNRYRNEICSFNDDIQGTAAVTVGTLIAASRAAGGQLSEKKIVFLGAGSAGCGIAEMIISQTQREGLSEEAARQKVFMVDRFGLLTDKMPNLLPFQTKLVQKRENLSDWDTDSDVLSLLDVVRNVKPDILIGVSGQTGLFTEEIIREMHKHCPRPIVMPLSNPTSRVEATPQDIIAWTEGNALVATGSPFNPVVWKDKIYPIAQCNNAFIFPGIGLGVIASGASRITDEMLMSASETLAQYSPLVLNGEGMVLPELKDIQKVSRAIAFAVGKMAQQQGVAVKTSAEALQQAIDDNFWQAEYRDYRRTSI | 3.1 ± 0.2 h | 10.8 ± 0.22 h | 5.23 ± 0.31 h | 10.8 ± 0.32 h | 6.33 ± 0.63 h | 6.5 ± 0.58 h | 5.686 ± 0.037 h | 6.01 ± 0.3 h | 6.06 ± 0.73 h | 5.94 ± 0.31 h | 6.05 ± 0.42 h | 12.1 ± 0.8 h |
| MEQAHTQLIAQLNERILAADNTPLYIKFAETVKNAVRSGVLEHGNILPGERDLSQLTGVSRITVRKAMQALEEEGVVTRSRGYGTQINNIFEYSLKEARGFSQQVVLRGKKPDTLWVNKRVVKCPEEVAQQLAVEAGSDVFLLKRIRYVDEEAVSIEESWVPAHLIHDVDAIGISLYDYFRSQHIYPQRTRSRVSARMPDAEFQSHIQLDSKIPVLVIKQVALDQQQRPIEYSISHCRSDLYVFVCEE [P0ACM5] | 2.75 ± 0.084 h | 8.6 ± 0.18 h | 4.04 ± 0.17 h | 6.99 ± 0.2 h | 5.72 ± 0.0036 h |  | 4.14 ± 0.2 h | 4.55 ± 0.12 h | 3.91 ± 0.15 h | 4.84 ± 0.37 h | 4.28 ± 0.053 h | 7.99 ± 0.19 h |
| MEQPVIPVRNIYYMLTYAWGYLQEIKQANLEAIPGNNLLDILGYVLNKGVLQLSRRGLELDYNPNTEIIPGIKGRIEFAKTIRGFHLNHGKTVSTFDMLNEDTLANRIIKSTLAILIKHEKLNSTIRDEARSLYRKLPGISTLHLTPQHFSYLNGGKNTRYYKFVISVCKFIVNNSIPGQNKGHYRFYDFERNEKEMSLLYQKFLYEFCRRELTSANTTRSYLKWDASSISDQSLNLLPRMETDITIRSSEKILIVDAKYYKSIFSRRMGTEKFHSQNLYQLMNYLWSLKPENGENIGGLLIYPHVDTAVKHRYKINGFDIGLCTVNLGQEWPCIHQELLDIFDEYLK | 3.05 ± 0.89 h | > 16 h |  |  |  |  |  |  |  | 5.31 h | 5.09 ± 0.42 h | 7.9 ± 0.14 h |
| MEQVVIVDAIRTPMGRSKGGAFRNVRAEDLSAHLMRSLLARNPALEAAALDDIYWGCVQQTLEQGFNIARNAALLAEVPHSVPAVTVNRLCGSSMQALHDAARMIMTGDAQACLVGGVEHMGHVPMSHGVDFHPGLSRNVAKAAGMMGLTAEMLARMHGISREMQDAFAARSHARAWAATQSAAFKNEIIPTGGHDADGVLKQFNYDEVIRPETTVEALATLRPAFDPVNGMVTAGTSSALSDGAAAMLVMSESRAHELGLKPRARVRSMAVVGCDPSIMGYGPVPASKLALKKAGLSASDIGVFEMNEAFAAQILPCIKDLGLIEQIDEKINLNGGAIALGHPLGCSGARISTTLLNLMERKDVQFGLATMCIGLGQGIATVFERV | 3.36 ± 0.57 h | 9.67 ± 0.97 h | 3.18 ± 0.39 h | 4.39 ± 0.12 h | 4.38 ± 0.27 h | 3.05 ± 0.081 h | 2.922 ± 0.023 h | 2.52 ± 0.046 h | 3.22 ± 0.013 h | 5 ± 0.57 h | 5.97 ± 0.56 h | 11.5 ± 0.95 h |
| MERFLENAMYASRWLLAPVYFGLSLALVALALKFFQEIIHVLPNIFSMAESDLILVLLSLVDMTLVGGLLVMVMFSGYENFVSQLDISENKEKLNWLGKMDATSLKNKVAASIVAISSIHLLRVFMDAKNVPDNKLMWYVIIHLTFVLSAFVMGYLDRLTRHNH | 2.92 ± 0.05 h | 11.8 ± 1.8 h | 4.99 ± 0.67 h |  |  |  |  | 6.103 ± 0.048 h | 5.64 ± 0.26 h |  | 5.88 h | 10.6 h |
| MERLLIVNADDFGLSKGQNYGIIEACRNGIVTSTTALVNGQAIDHAVQLSRDEPSLAIGMHFVLTMGKPLTAMPGLTRDGVLGKWIWQLAEEDALPLEEITQELVSQYLRFIELFGRKPTHLDSHHHVHMFPQIFPIVARFAAEQGIALRADRQMAFDLPVNLRTTQGFSSAFYGEEISESLFLQVLDDAGHRGDRSLEVMCHPAFIDNTIRQSAYCFPRLTELDVLTSASLKGAIAQRGYRLGSYRDV | 2.86 ± 0.21 h | 7.9 ± 0.51 h | 3.27 ± 0.43 h | 4.74 ± 0.26 h |  | 3.19 ± 0.45 h | 3.38 h | 3.55 ± 0.42 h | 2.945 ± 0.014 h | 4.51 ± 0.39 h | 5.12 ± 0.14 h | 10.1 ± 0.26 h |
